{"source": "patent US20230133118A1", "about": "“COMPOSITIONS AND METHODS FOR TREATING CANCER” (Adagene AG, priority 2020, published 2023)", "key": {"4T1 breast cancer cells": {"tested_on": "4T1 breast cancer cells", "assay": "4T1 breast cancer model, ADG106 with docetaxel", "assay_type": "in vivo, BALB/c mice", "conditions": "5 mg/kg; ADG106 i.p. twice a week 4 doses, Docetaxel i.v. once a week 3 doses", "description": "Tumor growth was monitored twice weekly and is reported as mean tumor volume ±SEM over time."}, "Lewis lung cancer cells": {"tested_on": "Lewis lung cancer cells", "assay": "Lewis lung cancer model, ADG106 with cisplatin", "assay_type": "in vivo, C57BL/6 mice", "conditions": "5 mg/kg i.p.", "text": "C57BL/6 mice (n=8 per group, female, 6-8 weeks old) were transplanted subcutaneously with 5×10^5 Lewis lung cancer cells. […] Tumor growth was monitored twice weekly and reported as mean tumor volume ±SEM over time."}, "LLC-CD20 cells": {"tested_on": "LLC-CD20 cells", "assay": "LLC-CD20 lung cancer model, ADG106 with rituximab", "assay_type": "in vivo, C57BL/6 mice", "conditions": "10 mg/kg i.p. twice a week for 3 weeks", "text": "C57BL/6 mice (n=6 per group, female, 6-8 weeks old) were transplanted subcutaneously with 5×10^5 LLC-CD20 cells, a Lewis lung cancer cell line expressing CD20. […] Tumor growth was monitored twice weekly and reported as mean tumor volume ±SEM over time."}, "CD137 [1]": {"target": "T1, CD137 (Homo sapiens, UniProt Q07011)", "T1 sequence (Q07011 24-255)": "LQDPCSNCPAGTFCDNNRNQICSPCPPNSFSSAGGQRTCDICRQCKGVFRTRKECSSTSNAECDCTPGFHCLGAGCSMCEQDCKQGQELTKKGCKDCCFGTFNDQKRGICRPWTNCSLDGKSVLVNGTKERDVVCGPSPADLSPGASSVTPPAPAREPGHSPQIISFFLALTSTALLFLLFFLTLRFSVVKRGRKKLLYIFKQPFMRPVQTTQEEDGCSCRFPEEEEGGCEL", "assay": "Binding affinity (KD) by surface plasmon resonance (SPR)", "conditions": "read-out: binding affinity (KD)"}, "CD137 [2]": {"target": "T1, CD137", "assay": "Receptor occupancy calculated from drug plasma concentration and KD", "conditions": "0.1 mg/kg, MTD for Urelumab"}, "CD137 [3]": {"target": "T1, CD137", "assay": "Cellular NFκB reporter gene assay (CD137-expressing NFκB-Luc Jurkat reporter cells)", "assay_type": "cell-based", "set-up": "expressed in transfected cells; host or cells: NFκB-Luc Jurkat reporter cells (with or without co-cultured CHO-K1 cells expressing human FcγRIIb)", "procedure": "The CD137-expressing NFκB-Luc Jurkat reporter cells were stimulated with the anti-CD137 antibodies in the absence (left panel) or presence (right panel) of co-cultured CHO-K1 cell expressing human FcγRIIb. Luciferase activity was measured by bioluminescence assay."}}, "data": [{"compound": "CC(=O)O[C@@]12CO[C@@H]1C[C@H](O)[C@@]1(C)C(=O)[C@H](O)C3=C(C)[C@@H](OC(=O)[C@H](O)[C@@H](NC(=O)OC(C)(C)C)c4ccccc4)C[C@@](O)([C@@H](OC(=O)c4ccccc4)[C@H]21)C3(C)C", "note": "[Docetaxel, docetaxel, reference compound]", "values": [{"measurement": "anti-tumor activity, mono-therapy", "setting": "4T1 breast cancer cells", "result": "marginal anti-tumor activity"}]}, {"compound": "N.N.[Cl][Pt][Cl]", "note": "[cisplatin, reference compound]", "values": [{"measurement": "anti-tumor activity, monotherapy", "setting": "Lewis lung cancer cells", "result": "showed anti-tumor activity"}]}, {"compound": "Rituximab: anti-CD20 antibody [reference compound]", "values": [{"measurement": "tumor growth, single agent", "setting": "LLC-CD20 cells", "result": "only weakly inhibited tumor growth"}]}, {"compound": "Urelumab: clinical reference anti-CD137 mAb [reference compound]", "values": [{"measurement": "Kd", "setting": "CD137 [1]", "result": 9.6, "unit": "nM"}, {"measurement": "Calculated Receptor Occupancy", "setting": "CD137 [2]", "result": 64, "unit": "%"}, {"measurement": "human CD137 agonism without crosslinking", "setting": "CD137 [3]; no crosslinking", "result": "function as a human CD137 agonist without crosslinking"}, {"measurement": "human CD137 agonism following crosslinking", "setting": "CD137 [3]; with crosslinking", "result": "function as agonists"}]}]}
